In article PMC7881012, “Human ACE2 peptide-mimics block SARS-CoV-2 pulmonary cells infection” (Communications Biology, 2021):
Ends that are not written are not given here.

B1: P10 (designed binder)
peptide: SALEEQYKTFLDKFMHELEDLLYQLAL
notes: also called peptide P10; source: synthetic peptide (solid-phase synthesis on rink amide resin, HPLC purified)

Target: T1, Fc-tagged 2019-nCoV RBD-SD1 (SARS-CoV-2 (2019-nCoV), UniProt P0DTC2 319-591)
T1 construct: source: bought: Sanyou Biopharmaceuticals Co. Ltd
Experiment: BLI
Conditions: both partners purified

Row | Binder | Kd
1 | B1 | 30 ± 10 pM
2 | SALEEQLKTFLDKFMHELEDLLYQLAL-NH2 (designed binder, also called peptide P8) [P8] | 24000 ± 11000 pM
3 | SALEEQYKTFLDKFMHELEDLLYQLSL (designed binder, also called peptide P9) [P9] | 90 ± 80 pM
